B1: TPR t1 (parent)
chain: GACCAAUCUGCCCUCAGAGCUCGAGAACAUCUUCGGAUGCAGAGGAGGCAGGCUUCGGUGGCGCGAUAGCGCCAACGUCCUCAACCUCCAAUGCAUCCCACCACAUGAUGAUGCCUGAAGAGCCUUGGUUUUUUG

Variants of: B1
Assay: polymerase ribozyme fitness, log enrichment relative to wild type (log ratio); higher = more active; in vitro selection for triplet polymerase activity
Procedure, shortened: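 Each subunit of a heterodimeric triplet polymerase ribozyme was represented by a PCR-built, transcribed mutant library that underwent triplicate single-round in vitro selection with frozen incubation at −7 °C. Extended constructs were recovered by gel excision, streptavidin-bead capture and RT-PCR, and Illumina sequencing of input and output libraries kept genotypes with ≥10 input reads and ≥1 read per output. Fitness is the logarithm of genotype enrichment relative to wild-type enrichment, from inverse-variance-weighted replicate averages, with a logarithm base of 2.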

Variant | polymerase ribozyme fitness (log ratio)
U30C C49U G63C G77A | -6.71
A29U U112A U131A | -1.03
U32C G63A U78G C98U G117U | -6.07
U30C C49G G63U C70U A84C C114U | -6.54
U30C C70U C82G | -6.42
U32C G71U U129A | -1.48
U32A C101U | -4.58
C31U C53U C72U A103U | -6.73
C31A C72U U92G G113U | -6.05
U32C C62A | -1.92
U33A C89A G117U | -5.96
C31G C114A | -6.73
A29U U130G | -2.07
U32C C72A C101U U112A C123G | -3.08
U32C C53U C56A A118U | 0.16
C31U C85A U106A | -2.67
C31U G36U G61U C82A A111U | -5.16
C31G C124A U129G | -6.34
C31U C73G | -4.48
C31U U129G | -5.03
C31A G61A C94U C97U C123U | -6.35
A29U C94U A121U | -0.384
U33A | -4.27
U30A G39C | -5.36

Variant | polymerase ribozyme fitness (log ratio)
A29U G58A G71C U112A | -1.32
C31G U55C G60A U116C | -6.66
C31A U106G G107U | -1.91
C31U G120U | -4.56
C31U C123G | -2.99
U30C C72U U87A U112A | -2.41
C31U C73G C89U | -5.24
U32G C56G | -6.87
C31G G122A | -5.66
A29U G48U C72G G120A | -3.12
C31U U87C U96A G120U | -5.92
A29U G60C C89A G110A | -5.77
U32C G63U G69A | -4.13
U32G A43C C73U C97G G117A | -6.86
U30C G58C C85G | -3.06
A29U G45U C73U A95G U131A | -4.04
U32C G93U | -0.79
A29U G42C G113U U129A | -4.15
A29U G47C A119G | -2.66
U32G G57A C123U | -7.55
U30A A121C | -3.22
A29U C124U U131A | -0.63
U32A C88A C89A A119G | -4.6
U30A G39C C49A | -5.37

Variant | polymerase ribozyme fitness (log ratio)
A29U G127U | -3.66
A29U G127C | -3.29
C31A A50G U55G G107A C124U | -3.71
U30C C97G A108U U112A C124G | -7.16
C31U A37G G69U | -3.72
U30C C64G C99G C123G | -7.65
U32C U116A | -3.4
A29U G45U G69U | -2.7
U32C G57U | -0.164
U30C C56A C82U C94U G113C | -5.15
C31A C72U | -5.82
U30C U54A | -2.81
C31G C72U A95C G113A | -6.94
C31U C49G | -4.41
C31G G42U G113U | -5.66
C31A U112C | -3.86
C31G G52U G77A G117U | -6.19
C31A A118U | -5.02
U33A A119G G120A | -3.37
U30A | -4.65
U30G | -5.83
U30C | -1.66
U33A A68U | -7.2
C31U C89U | -5.93

Variant | polymerase ribozyme fitness (log ratio)
C31U C89G | -5.1
A29U U54G U55G C101U | -4.04
U32C G69A C76G G77C | -4.8
U32C C56U G60A C88A | -5.77
U30G G60C U112A G127U U129G | -5.06
A29U G39U G61A G122A | -3.23
U32C C73U G117U | -2.41
U32C C82G U87A | -2.42
A29U G52U C76A C123U G135U | -3.34
U32A G61A C123G | -1.69
C31U A37G | -3.78
U32G C49A G117A | -7.02
A29U C89U | -2.05
A29U G44A C101U | -4.87
U33A C72A U78C U87A | -5.41
C31U G63A C85U C124G | -4.75
C31G C70A | -7.42
U32A G44A U87C | -5.32
U32A | -3.82
U32C | 0.135
U32G | -6.71
C31A C88U A121G | -2.7
C31U C40U G61U G120A | -4.29
U32C G60U U87C C101G | -5.05

Variant | polymerase ribozyme fitness (log ratio)
U30C G44A C53G | -5.41
U30C U106A | -1.11
U32C G77U U126G | -2.53
U32C A75G C124A | 1.81
U33A C56G G71U G93U C99U G110U G127C | -6.53
C31U C72G G120C | -5.23
C31U G60A G71A U78G C101U G110U U125A | -6.74
U32A G45C U54A G61U | -3.78
U30C G63U C85U | -5.85
U30C C56G C70U C79A C89U C98U C101A G110C | -6.87
U32C G52U U81G | -4.15
A29U G44U G45A | -4.25
U33A A37U U55C A100C | -6.04
U30C U87A | -2.98
U32C C86U C101U C114A | -4.6
U32A C88U | -3.8
A29U G36U U112C | -1.39
U32G U59C U112A G122U | -6.09
U32A G47C C53G C86A | -6.08
U32C G45A G63C C114U | -2.97
A29U G45U | -3.1
U32C G60C A75C C79G A118U G135U | -2.26
U32A C49G C123U | -4.37
U30C G60A | -1.98

Variant | polymerase ribozyme fitness (log ratio)
C31A C70A A83C G113U A118G | -6.98
U32C A41U C89G G93U | -4.07
U32C G71U G110A C123U U131G | -4.9
U30G C79G U106A | -3.54
A29U U109C C124A | -3.97
A29U U78A | -1.8
U32A C40U C101A C124A | -3.05
U30C G113C | -3.49
U30G C72U C80A A108C | -2.77
U32C U78C C89A | -1.52
C31G C56U G61A G69A U87G C123G | -7.19
A29U G45U A74G | -3.27
C31U U87C G113U C123G U132A | -5.61
U30C C124U | -1.4
C31A A37U C88A A111G U112G U129A | -7.12
C31U G44U | -5.33
U32C G48U C101U A118G | -3.71
U32C C56A U116G G122A U132C | -3.25
C31A G44U G47C U78G G120C G127U | -6.6
C31U A84C C97A A121U | -6.87
A29U G58C G120C C124A | -1.02
U33A C89G A103U U112A G113U | -5.8
U32C A84U C123G U131C | 1.03
U33A C86U | -4.21

Variant | polymerase ribozyme fitness (log ratio)
U30C G36C C70G U78C A84C U112G | -6.17
A29U G77U | -1.77
U33A A84U C97U | -4.91
A29U G45C U55G C64U G93U U109A G117U | -5.42
C31G C73A | -6.15
A29U G63U U78C | -4.96
A29U G44A C72U G110A U125A | -5.47
C31G G45C C64G G113U | -5.01
C31U G48A | -5.2
U30A G52C | -5.66
U30A C88U | -5.1
A29U U81A C82A U87G U112A | -1.91
U32C G39U C56U G58C | -0.298
U32C G113U C123U | -3.78
U32C C73U A118G | -0.657
U30C C86A G135C | -4.17
C31U G44C G60A | -5.87
A29U C97A A121U | -4.33
U30G A43U G45U G47A C49A U106A A119G | -4.24
U32C C49U | -0.805
U33A A90C | -6.85
C31U C53G C124A | -3.5
U30C C70U G113C | -3.79
